Results as given in PMC2702006 (The Febs Journal, 2009).

B1: human Hsp90β T110I (natural protein)
chain: not shown
B2: pyrene-labelled human Hsp90β E20C-C366A-A116N (natural protein)
chain: not shown
modifications: N-(1-pyrene)-maleimide label at position 20 (E20C)
B3: human Hsp90β L24R (natural protein)
chain: not shown
B4: human Hsp90β A116N (natural protein)
chain: not shown

Columns and labels:
cross-linking = target: the molecule itself; assay: cross-linking
FRET or BRET = target: the molecule itself; assay: FRET or BRET
[1] = target: the molecule itself; assay: cell-based or functional assay

Protein | binding result (cross-linking) | also measured
B1 | binds | –
B2 | – | binding result (FRET or BRET): binds
B3 | – | ATPase activity relative to wild-type Hsp90β [1]: 6.2 % activity relative to wild-type Hsp90β
B4 | binds | –
